Reference: patent US20110288003A1 (INDIANA UNIVERSITY RESEARCH AND TECHNOLOGY, published 2011)
Bridge positions count the residues as written; N and C are the ends. Ends that are not written are not given here. PLA = phenyl lactic acid

B1: [PLA6, E9, E16K20(Lactam)] glucagon(6-39) (Table 13, peptide 6) (peptide)
peptide: TSEYSKYLDERRAKDFVQWLMNTGPSSGAPPPS
modifications: PLA (phenyl lactic acid, in place of Phe6 of glucagon) at the N-terminus before the printed letters; lactam between E16 and K20 (glucagon numbering)
B2: [E9, E16K20(lactam), D28]G(4~29) (peptide)
peptide: GTFTSEYSKYLDERRAKDFVQWLMDT-NH2
modifications: lactam 13-17; N-terminus assumed
SMILES: CSCC[C@H](NC(=O)[C@H](CC(C)C)NC(=O)[C@H](Cc1c[nH]c2ccccc12)NC(=O)[C@H](CCC(N)=O)NC(=O)[C@@H](NC(=O)[C@H](Cc1ccccc1)NC(=O)[C@H](CC(=O)O)NC(=O)[C@@H]1CCCCNC(=O)CC[C@H](NC(=O)[C@H](CC(=O)O)NC(=O)[C@H](CC(C)C)NC(=O)[C@H](Cc2ccc(O)cc2)NC(=O)[C@H](CCCCN)NC(=O)[C@H](CO)NC(=O)[C@H](Cc2ccc(O)cc2)NC(=O)[C@H](CCC(=O)O)NC(=O)[C@H](CO)NC(=O)[C@@H](NC(=O)[C@H](Cc2ccccc2)NC(=O)[C@@H](NC(=O)CN)[C@@H](C)O)[C@@H](C)O)C(=O)N[C@@H](CCCNC(=N)N)C(=O)N[C@@H](CCCNC(=N)N)C(=O)N[C@@H](C)C(=O)N1)C(C)C)C(=O)N[C@@H](CC(=O)O)C(=O)N[C@H](C(N)=O)[C@@H](C)O
B3: [A2E3, E16K20(Lactam), D28]G(1~29) (peptide)
peptide: HAEGTFTSEYSKYLDERRAKDFVQWLMDT-NH2
modifications: lactam 16-20; N-terminus assumed
SMILES: CSCC[C@H](NC(=O)[C@H](CC(C)C)NC(=O)[C@H](Cc1c[nH]c2ccccc12)NC(=O)[C@H](CCC(N)=O)NC(=O)[C@@H](NC(=O)[C@H](Cc1ccccc1)NC(=O)[C@H](CC(=O)O)NC(=O)[C@@H]1CCCCNC(=O)CC[C@H](NC(=O)[C@H](CC(=O)O)NC(=O)[C@H](CC(C)C)NC(=O)[C@H](Cc2ccc(O)cc2)NC(=O)[C@H](CCCCN)NC(=O)[C@H](CO)NC(=O)[C@H](Cc2ccc(O)cc2)NC(=O)[C@H](CCC(=O)O)NC(=O)[C@H](CO)NC(=O)[C@@H](NC(=O)[C@H](Cc2ccccc2)NC(=O)[C@@H](NC(=O)CNC(=O)[C@H](CCC(=O)O)NC(=O)[C@H](C)NC(=O)[C@@H](N)Cc2c[nH]cn2)[C@@H](C)O)[C@@H](C)O)C(=O)N[C@@H](CCCNC(=N)N)C(=O)N[C@@H](CCCNC(=N)N)C(=O)N[C@@H](C)C(=O)N1)C(C)C)C(=O)N[C@@H](CC(=O)O)C(=O)N[C@H](C(N)=O)[C@@H](C)O

target: T1, GLP-1 receptor (UniProt P43220 24-463, limits assumed); test: cell-based or functional assay

Binder | GLP-1 EC50 [nM]
{PLA}-TSDYSKYLDERRAKDFVQWLMDT (lactam 10-14) [[PLA6, D9, E16K20(lactam), D28]G(6-29)] | 4
B1 | 20
FTSEYSKYLDERRAQDFVQWLMNTGPSSGAPPPS (lactam 7-11) [E9, K12E16(lactam) glucagon(6-39) (Table 13, peptide 2)] | 63
FTSEYSKYLDERRAKDFVQWLMNTGPSSGAPPPS (lactam 11-15) [E9, E16K20(lactam) glucagon(6-39) (Table 13, peptide 3)] | 36

target: T2, glucagon receptor (UniProt P47871 26-477, limits assumed); test: cell-based or functional assay
T2 sequence (P47871 26-477 limits assumed): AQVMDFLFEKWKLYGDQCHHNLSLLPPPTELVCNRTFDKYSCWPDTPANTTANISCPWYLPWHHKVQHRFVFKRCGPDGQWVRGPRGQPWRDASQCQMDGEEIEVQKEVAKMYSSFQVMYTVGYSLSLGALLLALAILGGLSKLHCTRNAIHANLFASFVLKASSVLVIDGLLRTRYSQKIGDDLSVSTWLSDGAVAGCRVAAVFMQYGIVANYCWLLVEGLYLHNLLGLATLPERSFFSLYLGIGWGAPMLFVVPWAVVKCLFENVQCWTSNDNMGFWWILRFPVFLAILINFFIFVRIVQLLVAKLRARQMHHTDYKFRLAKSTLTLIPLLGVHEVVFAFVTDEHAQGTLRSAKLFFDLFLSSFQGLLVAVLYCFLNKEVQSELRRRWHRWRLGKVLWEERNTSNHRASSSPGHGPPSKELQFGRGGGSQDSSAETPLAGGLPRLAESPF

Binder | Glucagon IC50 [nM]
{PLA}-TSDYSKYLDERRAKDFVQWLMDT (lactam 10-14) [[PLA6, D9, E16K20(lactam), D28]G(6-29)] | 6
FTSEYSKYLDERRAQDFVQWLMNTGPSSGAPPPS [E9, K12, E16 glucagon(6-39) (Table 13, peptide 1)] | 762
FTSEYSKYLDERRAQDFVQWLMNTGPSSGAPPPS (lactam 7-11) [E9, K12E16(lactam) glucagon(6-39) (Table 13, peptide 2)] | 2010
FTSEYSKYLDERRAKDFVQWLMNTGPSSGAPPPS (lactam 11-15) [E9, E16K20(lactam) glucagon(6-39) (Table 13, peptide 3)] | 42

target: T1, GLP-1 receptor; test: cell-based or functional assay; remark: another data set of the same source
Target sequence in this assay (P43220 24-463 limits assumed): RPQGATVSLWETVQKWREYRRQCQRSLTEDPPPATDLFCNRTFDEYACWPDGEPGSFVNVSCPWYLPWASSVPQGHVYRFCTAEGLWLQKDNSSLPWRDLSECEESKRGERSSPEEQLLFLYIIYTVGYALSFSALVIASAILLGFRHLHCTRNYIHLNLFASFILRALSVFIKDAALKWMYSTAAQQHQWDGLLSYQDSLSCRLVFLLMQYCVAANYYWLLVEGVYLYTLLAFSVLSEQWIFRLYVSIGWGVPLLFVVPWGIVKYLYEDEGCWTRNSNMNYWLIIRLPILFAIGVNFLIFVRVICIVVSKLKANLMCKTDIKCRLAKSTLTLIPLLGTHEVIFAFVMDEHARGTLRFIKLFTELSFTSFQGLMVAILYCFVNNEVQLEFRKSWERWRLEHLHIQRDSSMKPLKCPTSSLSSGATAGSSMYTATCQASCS

Binder | GLP-1 EC50 [nM]
{PLA}-TSEYSKYLDERRAQDFVQWLMNTGPSSGAPPPS (lactam 6-10) [[PLA6, E9, K12E16(Lactam) glucagon(6-39) (Table 13, peptide 5)] | 6
FTSEYSKYLDERRAQDFVQWLMNTGPSSGAPPPS (lactam 7-11) [E9, K12E16(lactam) glucagon(6-39) (Table 13, peptide 2)] | 63
FTSDYSKYLDERRAQDFVQWLMNTGPSSGAPPPS (lactam 7-11) [D9, K12E16(Lactam) glucagon(6-39) (Table 13, peptide 4)] | 119
FTSEYSKYLDERRAKDFVQWLMNTGPSSGAPPPS (lactam 11-15) [E9, E16K20(lactam) glucagon(6-39) (Table 13, peptide 3)] | 36

target: T2, glucagon receptor; test: cell-based or functional assay; remark: another data set of the same source

Binder | Glu IC50 [nM]
{PLA}-TSEYSKYLDERRAQDFVQWLMNTGPSSGAPPPS (lactam 6-10) [[PLA6, E9, K12E16(Lactam) glucagon(6-39) (Table 13, peptide 5)] | 72
FTSEYSKYLDERRAQDFVQWLMNTGPSSGAPPPS [E9, K12, E16 glucagon(6-39) (Table 13, peptide 1)] | 762
FTSEYSKYLDERRAQDFVQWLMNTGPSSGAPPPS (lactam 7-11) [E9, K12E16(lactam) glucagon(6-39) (Table 13, peptide 2)] | 2010
FTSDYSKYLDERRAQDFVQWLMNTGPSSGAPPPS (lactam 7-11) [D9, K12E16(Lactam) glucagon(6-39) (Table 13, peptide 4)] | 828
FTSEYSKYLDERRAKDFVQWLMNTGPSSGAPPPS (lactam 11-15) [E9, E16K20(lactam) glucagon(6-39) (Table 13, peptide 3)] | 42

target: T1, GLP-1 receptor; test: cell-based or functional assay; remark: another data set of the same source

Binder | GLP-1 EC50 [nM]
{PLA}-TSDYSKYLDERRAKDFVEWLMDT (lactam 14-18) [[PLA6, D9, E16, K20E24(Lactam), D28]G(6-29)] | 239
B2 | 151
{PLA}-TSDYSKYLDERRAQDFVQWLMDT (lactam 6-10) [[PLA6, D9, K12E16(Lactam), D28]G(6-29)] | 177
HSQGTFTSDYARYLDARRAREFIKWLVRGRG [ANK2 (Bayer peptide)] | 0.28
{PLA}-TSDYSKYLDERRAQDFVEWLMKT (lactam 18-22) [[PLA6, D9, E16, E24K28(lactam)]G(6~29)] | 289
B3 | 0.2

target: T2, glucagon receptor; test: cell-based or functional assay; remark: another data set of the same source

Binder | Glucagon IC50 [nM] | Glucagon IC50 (nM); PA = partial antagonist [nM]
{PLA}-TSDYSKYLDERRAKDFVEWLMDT (lactam 14-18) [[PLA6, D9, E16, K20E24(Lactam), D28]G(6-29)] | 74 | –
B2 | 10 to 30 | –
{PLA}-TSDYSKYLDERRAQDFVQWLMDT (lactam 6-10) [[PLA6, D9, K12E16(Lactam), D28]G(6-29)] | 63 | –
AEGTFTSEYSKYLDERRAKDFVQWLMDT (lactam 15-19) [[A2E3, E16K20(Lactam), D28]G(2~29)] | 63 | –
{PLA}-TSDYSKYLDERRAKDFVQWLMDT (lactam 10-14) [[PLA6, D9, E16K20(lactam), D28]G(6-29)] | 10 to 30 | –
{PLA}-TSDYSKYLDERRAQDFVEWLMKT (lactam 18-22) [[PLA6, D9, E16, E24K28(lactam)]G(6~29)] | 22 | –
B3 | – | 130
